Reference: patent US20250152742A1, “COMPOSITIONS AND METHODS FOR NEUROLOGICAL DISEASES” (Trames Bio, Inc., priority 2022, published 2025)

System: engineered chimeric receptor SEQ ID NO: 33 and its mutants (human α7-nAChR ligand binding domain / human GlyRα1 ion pore domain) in Lenti-X 293T cells
Experiment: YFP fluorescence quenching anion reporter plate reader assay (percent quench, EC50)
Format: cell-based
Details: for YFP fluorescence quenching using CNL001 (percent quench): receptor named in row; for YFP fluorescence quenching using Varenicline, 3 nM var: ligand Varenicline 3 nM; for YFP fluorescence quenching using Varenicline, 30 nM var: ligand Varenicline 30 nM; for YFP fluorescence quenching using Varenicline, 300 nM var: ligand Varenicline 300 nM; for YFP fluorescence quenching using Varenicline, 500 nM var: ligand Varenicline 500 nM; for YFP fluorescence quenching using Varenicline, 1 uM var: ligand Varenicline 1 uM
How it was run: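 Lenti-X 293T cells co-expressing an anion-quenchable YFP were transiently transfected with receptor DNA, then ligand was added in NaI-substituted buffer (pH 7.2) after 30 min at 37 °C. Fluorescence was read about 2 min; percent quench = mean of last 10 s over 15 s pre-ligand baseline.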

B1: CODA335: engineered receptor: L131T in SEQ ID NO: 33 (protein)
chain: MRCSPGGVWLALAASLLHVSLQGEFQRKLYKELVKNYNPLERPVANDSQPLTVYFSLSLLQIMDVDEKNQVLTTNIWLQMSWTDHYLQWNVSEYPGVKTVRFPDGQIWKPDILLYNSADERFDATFHTNVTVNSSGHCQYLPPGIFKSSCPMDLKNFPMDVQTCKLKFGSWSYGGWSLDLQMQEADISGYIPNGEWDLVGIPGKRSERFYECCKEPYPDVTFTVTMRRRMGYYLIQMYIPSLLIVILSWISFWINMDAAPARVGLGITTVLTMTTQSSGSRASLPKVSYVKAIDIWMAVCLLFVFSALLEYAAVNFVSRQHKELLRFRRKRRHHKSPMLNLFQEDEAGEGRFNFSAYGMGPACLQAKDGISVKGANNSNTTNPPPAPSKSPEEMRKLFIQRAKKIDKISRIGFPMAFLIFNMFYWIIYKIVRREDVHNQ
modifications: synthetic sequence of chimeric LGIC
1 nM CNL001, first column so headed
  YFP fluorescence quenching using CNL001 (percent quench): −9.942%
1 nM CNL001, second column so headed
  YFP fluorescence quenching using CNL001 (percent quench): −0.475%
1 nM brd (TC-5619/Bradanicline)
  YFP fluorescence quenching using TC-5619/Bradanicline (percent quench): −2.39%
3 nM brd (TC-5619/Bradanicline)
  YFP fluorescence quenching using TC-5619/Bradanicline (percent quench): −4.08%
10 nM CNL001, first column so headed
  YFP fluorescence quenching using CNL001 (percent quench): 17.889%
10 nM CNL001, second column so headed
  YFP fluorescence quenching using CNL001 (percent quench): 38.46%
10 nM brd (TC-5619/Bradanicline)
  YFP fluorescence quenching using TC-5619/Bradanicline (percent quench): −3.3%
30 nM TC-6683
  YFP fluorescence quenching using TC-6683 (percent quench): −13.84%
30 nM brd (TC-5619/Bradanicline)
  YFP fluorescence quenching using TC-5619/Bradanicline (percent quench): −9.69%
50 nM CNL001, first column so headed
  YFP fluorescence quenching using CNL001 (percent quench): 61.741%
50 nM CNL001, second column so headed
  YFP fluorescence quenching using CNL001 (percent quench): 69.159%
50 nM abt (ABT-126)
  YFP fluorescence quenching using ABT-126 (percent quench): −18%
100 nM CNL001, first column so headed
  YFP fluorescence quenching using CNL001 (percent quench): 73.635%
100 nM CNL001, second column so headed
  YFP fluorescence quenching using CNL001 (percent quench): 76.092%
100 nM CNL002
  YFP fluorescence quenching (percent quench): −14.53%
100 nM abt (ABT-126)
  YFP fluorescence quenching using ABT-126 (percent quench): −16.39%
100 nM azd0328
  YFP fluorescence quenching using AZD-0328 (percent quench): 11.33%
100 nM brd (TC-5619/Bradanicline)
  YFP fluorescence quenching using TC-5619/Bradanicline (percent quench): −1.05%
300 nM TC-6683
  YFP fluorescence quenching using TC-6683 (percent quench): −20.66%
300 nM abt (ABT-126)
  YFP fluorescence quenching using ABT-126 (percent quench): −15.05%
300 nM azd0328
  YFP fluorescence quenching using AZD-0328 (percent quench): 44.15%
300 nM brd (TC-5619/Bradanicline)
  YFP fluorescence quenching using TC-5619/Bradanicline (percent quench): 10.53%
1 uM CNL001, first column so headed
  YFP fluorescence quenching using CNL001 (percent quench): 80.633%
1 uM CNL001, second column so headed
  YFP fluorescence quenching using CNL001 (percent quench): 79.637%
1 uM CNL002
  YFP fluorescence quenching (percent quench): 6.45%
1 uM abt (ABT-126)
  YFP fluorescence quenching using ABT-126 (percent quench): −5.56%
1 uM brd (TC-5619/Bradanicline)
  YFP fluorescence quenching using TC-5619/Bradanicline (percent quench): 34.72%
3 uM TC-6683
  YFP fluorescence quenching using TC-6683 (percent quench): −17.86%
10 uM ach (acetylcholine)
  YFP fluorescence quenching (percent quench): −9.13%
30 uM CNL002
  YFP fluorescence quenching (percent quench): 57.43%
30 uM TC-6683
  YFP fluorescence quenching using TC-6683 (percent quench): −18.91%
30 uM azd0328
  YFP fluorescence quenching using AZD-0328 (percent quench): 80.96%
100 uM TC-6683
  YFP fluorescence quenching using TC-6683 (percent quench): −16.88%
100 uM ach (acetylcholine)
  YFP fluorescence quenching (percent quench): −9.29%
1 mM ach (acetylcholine)
  YFP fluorescence quenching (percent quench): 0.57%
3 mM ach (acetylcholine)
  YFP fluorescence quenching (percent quench): 35.37%
Ligand Facinicline 30 nM
  YFP fluorescence quenching using Facinicline, 30 nM fac: 1.24
Ligand Facinicline 300 nM
  YFP fluorescence quenching using Facinicline, 300 nM fac: 46.92
Ligand Facinicline 10 uM
  YFP fluorescence quenching using Facinicline, 10 uM fac: 79.06
Ligand Facinicline 30 uM
  YFP fluorescence quenching using Facinicline, 30 uM fac: 81.06
Ligand TC-6987 1 uM
  YFP fluorescence quenching using TC-6987, 1 uM tc6987: −0.14
Ligand TC-6987 3 uM
  YFP fluorescence quenching using TC-6987, 3 uM tc6987: −8.32
Ligand TC-6987 5 uM
  YFP fluorescence quenching using TC-6987, 5 uM tc6987: −2.13
Ligand TC-6987 10 uM
  YFP fluorescence quenching using TC-6987, 10 uM tc6987: 0.13
Ligand TC-6987 30 uM
  YFP fluorescence quenching using TC-6987, 30 uM tc6987: −6.86
Ligand TC-6987 50 uM
  YFP fluorescence quenching using TC-6987, 50 uM tc6987: −9.5
Ligand TC-6987 100 uM
  YFP fluorescence quenching using TC-6987, 100 uM tc6987: −10.98
Ligand TC-6987 300 uM
  YFP fluorescence quenching using TC-6987, 300 uM tc6987: −12.16
Ligand TC-6987 500 uM
  YFP fluorescence quenching using TC-6987, 500 uM tc6987: −2.41
First column
  YFP fluorescence quenching using Varenicline, 3 nM var: 0.398
  YFP fluorescence quenching using Varenicline, 30 nM var: 5.31
  YFP fluorescence quenching using Varenicline, 300 nM var: 4.327
  YFP fluorescence quenching using Varenicline, 500 nM var: 1.835
  YFP fluorescence quenching using Varenicline, 1 uM var: 9.471
Second column
  YFP fluorescence quenching using Varenicline, 3 nM var: 3.947
  YFP fluorescence quenching using Varenicline, 30 nM var: 7.666
  YFP fluorescence quenching using Varenicline, 300 nM var: 3.275
  YFP fluorescence quenching using Varenicline, 500 nM var: 4.863
  YFP fluorescence quenching using Varenicline, 1 uM var: 7.505
